{
  "source": "paper PMC10840721",
  "about": "(Developmental cell, 2022)",
  "key": {"[1]": {"target": "T1, NHR-23 (recombinant, Strep-SUMO tag cleaved) (C. elegans, UniProt P41828 1-588)", "T1 sequence (looked up)": "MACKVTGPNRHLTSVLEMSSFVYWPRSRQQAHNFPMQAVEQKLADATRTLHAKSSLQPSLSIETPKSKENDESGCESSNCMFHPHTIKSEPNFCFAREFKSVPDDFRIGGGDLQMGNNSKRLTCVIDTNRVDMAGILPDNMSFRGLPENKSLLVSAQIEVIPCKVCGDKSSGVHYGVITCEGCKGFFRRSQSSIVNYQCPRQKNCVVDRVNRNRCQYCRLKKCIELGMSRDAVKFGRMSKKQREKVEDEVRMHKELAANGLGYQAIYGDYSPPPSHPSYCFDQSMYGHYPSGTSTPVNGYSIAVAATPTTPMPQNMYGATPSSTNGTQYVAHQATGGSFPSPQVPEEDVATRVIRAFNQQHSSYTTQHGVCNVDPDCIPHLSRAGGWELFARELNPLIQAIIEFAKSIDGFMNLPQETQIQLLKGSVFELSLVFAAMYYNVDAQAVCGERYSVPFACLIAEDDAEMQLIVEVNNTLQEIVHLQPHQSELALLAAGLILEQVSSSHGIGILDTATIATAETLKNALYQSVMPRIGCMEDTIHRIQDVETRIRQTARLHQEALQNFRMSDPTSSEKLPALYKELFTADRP", "experiment": "MST"}, "[2]": {"target": "T2, NHR-23;NHR-85 (Caenorhabditis elegans;Caenorhabditis …, UniProt P41828;Q9XUK7 1-588;1-514, |)", "T2 sequence 1": "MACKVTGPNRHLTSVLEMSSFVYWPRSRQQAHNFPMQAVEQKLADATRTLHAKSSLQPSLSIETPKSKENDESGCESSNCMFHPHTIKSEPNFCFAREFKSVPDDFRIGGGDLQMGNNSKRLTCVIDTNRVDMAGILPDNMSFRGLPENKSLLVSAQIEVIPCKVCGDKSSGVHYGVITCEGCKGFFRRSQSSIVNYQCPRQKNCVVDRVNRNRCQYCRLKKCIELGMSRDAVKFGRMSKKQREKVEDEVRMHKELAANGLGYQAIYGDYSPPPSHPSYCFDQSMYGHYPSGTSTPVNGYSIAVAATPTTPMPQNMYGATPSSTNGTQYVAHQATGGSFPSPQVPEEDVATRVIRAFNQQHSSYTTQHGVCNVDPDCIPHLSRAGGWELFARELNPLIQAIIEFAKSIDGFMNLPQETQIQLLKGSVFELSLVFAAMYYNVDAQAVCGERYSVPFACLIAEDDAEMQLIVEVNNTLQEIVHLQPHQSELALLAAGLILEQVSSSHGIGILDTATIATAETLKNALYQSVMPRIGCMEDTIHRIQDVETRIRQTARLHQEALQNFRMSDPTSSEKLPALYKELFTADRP", "T2 sequence 2": "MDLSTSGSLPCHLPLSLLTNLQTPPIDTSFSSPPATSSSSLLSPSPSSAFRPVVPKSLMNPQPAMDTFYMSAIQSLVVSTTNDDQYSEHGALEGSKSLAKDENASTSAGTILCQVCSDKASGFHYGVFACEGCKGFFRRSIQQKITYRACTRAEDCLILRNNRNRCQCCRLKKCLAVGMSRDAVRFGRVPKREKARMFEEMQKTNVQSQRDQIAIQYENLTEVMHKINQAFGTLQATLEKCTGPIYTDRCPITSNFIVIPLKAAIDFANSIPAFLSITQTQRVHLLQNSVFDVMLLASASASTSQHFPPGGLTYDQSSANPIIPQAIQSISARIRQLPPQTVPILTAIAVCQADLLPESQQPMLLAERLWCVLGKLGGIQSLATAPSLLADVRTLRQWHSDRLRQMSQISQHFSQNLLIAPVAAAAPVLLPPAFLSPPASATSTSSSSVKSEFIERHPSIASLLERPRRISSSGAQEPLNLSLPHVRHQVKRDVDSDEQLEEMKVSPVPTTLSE", "experiment": "EMSA"}, "[3]": {"target": "T2, NHR-23;NHR-85", "experiment": "EMSA", "remark": "listed apart in the source"}, "[4]": {"target": "T2, NHR-23;NHR-85", "experiment": "EMSA", "remark": "listed apart in the source"}},
  "note": "Like-named read-outs stand apart in the source and are kept apart here.",
  "data": [
    {"binder": "Strep2-NHR-85 (natural protein, C. elegans, UniProt Q9XUK7 1-514, looked up, AlexaFluor647 NHS Ester label (in the microscale thermophoresis assay only)) MDLSTSGSLPCHLPLSLLTNLQTPPIDTSFSSPPATSSSSLLSPSPSSAFRPVVPKSLMNPQPAMDTFYMSAIQSLVVSTTNDDQYSEHGALEGSKSLAKDENASTSAGTILCQVCSDKASGFHYGVFACEGCKGFFRRSIQQKITYRACTRAEDCLILRNNRNRCQCCRLKKCLAVGMSRDAVRFGRVPKREKARMFEEMQKTNVQSQRDQIAIQYENLTEVMHKINQAFGTLQATLEKCTGPIYTDRCPITSNFIVIPLKAAIDFANSIPAFLSITQTQRVHLLQNSVFDVMLLASASASTSQHFPPGGLTYDQSSANPIIPQAIQSISARIRQLPPQTVPILTAIAVCQADLLPESQQPMLLAERLWCVLGKLGGIQSLATAPSLLADVRTLRQWHSDRLRQMSQISQHFSQNLLIAPVAAAAPVLLPPAFLSPPASATSTSSSSVKSEFIERHPSIASLLERPRRISSSGAQEPLNLSLPHVRHQVKRDVDSDEQLEEMKVSPVPTTLSE", "values": [
      {"measurement": "Kd", "setting": "[1]", "value": 5.8, "unit": "nM"}
    ]},
    {"binder": "wtLIN-4_23_85 (PCE direct repeat, 25 bp) (dsDNA) DNA 1: ACAAATTGAGGTCAGTCGGTCAGTA DNA 2: TACTGACCGACTGACCTCAATTTGT", "values": [
      {"measurement": "binding result", "setting": "[2]", "value": "binds"}
    ]},
    {"binder": "Mut_DR1 (dsDNA) DNA 1: ACAAATTGACCTGTGTCGGTCAGTA DNA 2: ACTGACCGACACAGGTCAATTTGT", "values": [
      {"measurement": "binding result", "setting": "[3]", "value": "no binding"}
    ]},
    {"binder": "Mut_DR2 (dsDNA) DNA 1: ACAAATTGAGGTCAGTCCCTGTCTA DNA 2: TAGACAGGGACTGACCTCAATTTGT", "values": [
      {"measurement": "binding result", "setting": "[3]", "value": "no binding"}
    ]},
    {"binder": "Proximal (25 bp) (dsDNA) DNA 1: CGAAGCGACCGAATGACCCAGTCTC DNA 2: GAGACTGGGTCATTCGGTCGCTTCG", "values": [
      {"measurement": "binding result", "setting": "[4]", "value": "binds"}
    ]}
  ]
}
